# Assay results: patent publication US20190153113A1, “CD39 VASCULAR ISOFORM TARGETING AGENTS” (INNATE PHARMA, priority 2015, published 2019)
# T1: CD39 (Homo sapiens, UniProt P49961)
# T1 construct: cells that endogenously express CD39 at their surface, e.g. regulatory T (TReg) cells, B cells, cancer cells, lymphoma cells (e.g. Ramos cells); endogenous in cells; host or cells: Ramos human lymphoma cells
# T1 sequence (P49961 1-510): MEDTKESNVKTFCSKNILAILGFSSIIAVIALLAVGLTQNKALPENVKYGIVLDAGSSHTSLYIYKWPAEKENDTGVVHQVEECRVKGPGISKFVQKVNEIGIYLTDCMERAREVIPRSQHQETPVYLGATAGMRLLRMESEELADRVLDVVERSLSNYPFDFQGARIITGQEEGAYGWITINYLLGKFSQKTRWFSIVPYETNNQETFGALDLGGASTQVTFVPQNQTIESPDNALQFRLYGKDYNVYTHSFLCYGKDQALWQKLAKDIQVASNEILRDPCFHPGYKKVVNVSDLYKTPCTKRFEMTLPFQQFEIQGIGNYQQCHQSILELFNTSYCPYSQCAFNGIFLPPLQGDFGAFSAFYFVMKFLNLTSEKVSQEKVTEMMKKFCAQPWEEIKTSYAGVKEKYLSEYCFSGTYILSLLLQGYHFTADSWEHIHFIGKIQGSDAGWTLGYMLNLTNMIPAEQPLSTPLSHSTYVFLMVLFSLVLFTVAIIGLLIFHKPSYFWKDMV
# T2: Recombinant human CD39-L2 (NTPDase6, ENTPD6) (human, UniProt O75354 61-484, limits assumed)
# T2 construct: Coated in ELISA
# T2 sequence: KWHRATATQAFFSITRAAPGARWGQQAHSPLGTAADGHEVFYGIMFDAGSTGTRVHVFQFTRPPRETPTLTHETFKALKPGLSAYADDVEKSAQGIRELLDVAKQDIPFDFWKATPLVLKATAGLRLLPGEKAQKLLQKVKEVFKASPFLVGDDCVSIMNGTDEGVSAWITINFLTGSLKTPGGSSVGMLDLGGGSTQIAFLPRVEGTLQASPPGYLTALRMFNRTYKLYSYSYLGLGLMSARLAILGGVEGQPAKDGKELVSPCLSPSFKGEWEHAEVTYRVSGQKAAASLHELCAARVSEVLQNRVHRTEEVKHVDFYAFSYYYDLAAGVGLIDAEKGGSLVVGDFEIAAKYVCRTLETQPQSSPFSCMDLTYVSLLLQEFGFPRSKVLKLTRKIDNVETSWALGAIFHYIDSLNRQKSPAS
# T3: Recombinant human CD39-L3 (NTPDase3, ENTPD3) (human, UniProt O75355 44-485, limits assumed)
# T3 construct: Coated in ELISA
# T3 sequence: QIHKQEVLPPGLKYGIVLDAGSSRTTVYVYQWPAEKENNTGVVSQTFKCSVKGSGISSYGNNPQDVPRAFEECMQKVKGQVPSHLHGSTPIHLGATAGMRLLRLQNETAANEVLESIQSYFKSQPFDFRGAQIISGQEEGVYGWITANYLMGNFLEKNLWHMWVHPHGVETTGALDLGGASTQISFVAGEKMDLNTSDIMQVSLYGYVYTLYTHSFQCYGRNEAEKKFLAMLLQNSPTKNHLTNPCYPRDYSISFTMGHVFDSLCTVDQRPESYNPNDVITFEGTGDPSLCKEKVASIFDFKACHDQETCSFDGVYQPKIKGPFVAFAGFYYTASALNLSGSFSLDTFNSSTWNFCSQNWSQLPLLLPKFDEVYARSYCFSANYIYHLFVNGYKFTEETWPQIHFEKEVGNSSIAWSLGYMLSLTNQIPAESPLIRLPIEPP
# T4: Recombinant human CD39-L4 (NTPDase5, ENTPD5) (human, UniProt O75356 25-428)
# T4 construct: Coated in ELISA
# T4 sequence: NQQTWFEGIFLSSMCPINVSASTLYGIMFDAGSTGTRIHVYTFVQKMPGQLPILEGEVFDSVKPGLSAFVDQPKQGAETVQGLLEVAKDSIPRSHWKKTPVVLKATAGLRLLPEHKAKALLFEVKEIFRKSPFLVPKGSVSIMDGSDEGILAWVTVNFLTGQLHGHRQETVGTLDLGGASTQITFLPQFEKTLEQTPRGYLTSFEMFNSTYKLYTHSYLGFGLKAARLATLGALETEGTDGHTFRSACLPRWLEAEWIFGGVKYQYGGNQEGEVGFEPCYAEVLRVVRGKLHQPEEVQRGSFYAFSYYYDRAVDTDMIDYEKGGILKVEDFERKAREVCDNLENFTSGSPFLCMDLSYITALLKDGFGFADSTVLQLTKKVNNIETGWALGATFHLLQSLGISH
# T5: Recombinant human CD39 protein (vascular isoform), soluble (human, UniProt P49961 38-478)
# T5 construct: they are written under this molecule; also called Rec-huCD39; huCD39 protein; not shown: M2 tag added in the C-terminal part
# T5 sequence: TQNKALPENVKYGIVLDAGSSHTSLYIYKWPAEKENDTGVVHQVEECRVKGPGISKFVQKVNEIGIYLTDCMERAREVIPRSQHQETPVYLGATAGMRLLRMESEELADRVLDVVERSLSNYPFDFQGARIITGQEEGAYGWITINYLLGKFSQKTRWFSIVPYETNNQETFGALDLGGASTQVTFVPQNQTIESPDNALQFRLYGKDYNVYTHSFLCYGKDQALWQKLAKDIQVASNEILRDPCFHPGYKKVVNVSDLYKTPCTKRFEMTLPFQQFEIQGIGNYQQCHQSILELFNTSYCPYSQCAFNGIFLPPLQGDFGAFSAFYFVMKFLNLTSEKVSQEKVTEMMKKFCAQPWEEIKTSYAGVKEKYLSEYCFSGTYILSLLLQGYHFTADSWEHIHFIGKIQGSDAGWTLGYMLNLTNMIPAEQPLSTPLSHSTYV
# T6: Human CD39 (vascular CD39, NTPDase1, ENTPD1) expressed at the cell surface (human, UniProt P49961 1-510)
# T6 construct: also called huCD39; HEK-huCD39
# T6 sequence: T1 sequence (P49961 1-510)
# B1: Antibody I-391 with Fc domain of mouse IgG2a isotype (MOGA) (antibody, V domains shown)
# VH: QIQLVQSGPELKKPGETVKISCKASGYTFRNYGMNWVKQAPGKGLKWMGWINTYTGEPTYADDFKGRFAFSLATSASTAYLQISNLKNEDTATYFCARKAYYGSNYYFDYWGQGTTLTVSS
# VL: DIVMTQSHKFMSTSVGDRVSITCKASQDVSTAVAWYQQKPGQSPKLLIYSASYRYTGVPDRFTGSGSGTDFTFTISTVQAEDLAVYYCQQHYTTPPYTFGGGTKLEIK
# B2: Antibody I-392, recombinant chimeric human IgG1 with heavy chain N297Q mutation (antibody, V domains shown)
# VH: QIQLVQSGPEVKKPRETVKISCKASGYTFTHYGMNWVKQAPGKGLKWMGWINTYTGEPTYADDFKGRFAFSLEASASTAYLQINNLKNEDTATYFCARRRYEGNYVFYYFDYWGQGTTLTVSS
# VL: DIQMTQSPASLSASVGETVTITCRASENIYSYFSWYQQKQGKSPQLLVYTAKTLAEGVPSRFSGSGSGTQFSLKINSLQPEDFGSYYCQHHYVTPYTFGGGTKLEIK
# Experiments:
# CD39 = target: T1, CD39; assay: Inhibition of CD39 enzymatic activity in Ramos cells, AMP production by Maldi TOF mass spectrometry; assay type: cell-based; conditions: Ramos cells, ARL at 100 nM, Example 7
# Protocol: The inhibition of CD39 enzymatic activity by antibodies was evaluated by Maldi TOF mass spectrometry (production of AMP). This assay represents an assay that is relatively insensitive to down-modulation of CD39 expression. […] After washes, cells were incubated with anti-CD39 antibodies, isotype control, or ARL and 50 μM ATP for 30 minutes at 4° C. in PBS. AMP generated is quantified in supernatants by Maldi TOP.
# The inhibition of CD39 enzymatic activity by antibodies was evaluated by Maldi TOF mass spectrometry (production of AMP). Briefly, 10^5 Ramos human lymphoma cells were incubated overnight at 37° C. with anti-CD39 antibodies or a chemical CD39 inhibitor (ARL 100 μM). After washes, cells were incubated with anti-CD39 antibodies, isotype control, or ARL and 50 μM ATP for 30 minutes at 4° C. in PBS. AMP generated is quantified in supernatants by Maldi TOP. Antibodies were used at 33 nM and ARL at […].
# [1] = target: T2, Recombinant human CD39-L2 (NTPDase6, …); assay: ELISA on coated RechuCD39-L2, OD 450 nm [bottom panel Mouse IgG2a I-391]
# Protocol: (§1) Wells were washed in TBS Tween 20, and further saturated 2H at RT in TBS Blocking buffer. Dose range concentration of primary antibody was incubated in TBS blocking buffer for 2h at RT. Wells were washed in TBS Tween 20. […] Optical density was measured on Enspire at OD=450.
# [2] = target: T3, Recombinant human CD39-L3 (NTPDase3, …); assay: ELISA on coated RechuCD39-L3, OD 450 nm [bottom panel Mouse IgG2a I-391]
# Protocol: as §1
# [3] = target: T4, Recombinant human CD39-L4 (NTPDase5, …); assay: ELISA on coated RechuCD39-L4, OD 450 nm [bottom panel Mouse IgG2a I-391]
# Protocol: as §1
# [4] = target: T5, Recombinant human CD39 protein …; assay: ELISA on coated recombinant human CD39 (RechuCD39), HRP secondary antibody, TMB, OD 450 nm [bottom panel Mouse IgG2a I-391]
# Protocol: as §1
# [5] = target: T2, Recombinant human CD39-L2 (NTPDase6, …); assay: ELISA, recombinant isoform coated at 500 ng/ml or 1 µg/ml
# Protocol: as §1
# [6] = target: T3, Recombinant human CD39-L3 (NTPDase3, …); assay: as above
# Protocol: as §1
# [7] = target: T4, Recombinant human CD39-L4 (NTPDase5, …); assay: as above
# Protocol: as §1
# [8] = target: T6, Human CD39 (vascular CD39, NTPDase1, …); assay: flow cytometry on Ramos cells, antibody at 10 µg/ml, GAM-PE
molecule,measurement,setting,value
"CCN(CC)c1ncnc2c1ncn2[C@@H]1O[C@H](COP(=O)(O)OP(=O)(O)C(Br)(Br)P(=O)(O)O)[C@@H](O)[C@H]1O [ARL, reference compound]",inhibition of AMP generated,CD39,"strong inhibition of AMP generated, but resulted in significantly less CD39 blockade than I-391"
B1,binding result,[1],no binding (tested: 50 ug/ml)
same,binding result,[2],no binding (tested: 50 ug/ml)
same,binding result,[3],no binding (tested: 50 ug/ml)
same,EC50 (read off the curve),[4],~0.08 µg/mL
B2,binding result,[5],no binding
same,binding result,[6],no binding
same,binding result,[7],no binding
same,binding result,[8],binds
